Test results: patent publication US8703698B2, “Compositions and methods for treating atherosclerosis” (The University of Chicago, priority 2003, dated 2014)

Legend:
J774 macrophages [1] = details: Tam et al. 2002; cited from earlier work
[2] = biological target: T1, acyl CoA:cholesterol acyl transferase (Mus musculus, UniProt Q61263); assay: ACAT activity in macrophage post-nuclear homogenates; assay type: biochemical, murine; details: macrophage post-nuclear homogenates as enzyme source
T1 construct: host or cells: J774 mouse macrophages, cholesterol-loaded
T1 sequence (Q61263 1-540): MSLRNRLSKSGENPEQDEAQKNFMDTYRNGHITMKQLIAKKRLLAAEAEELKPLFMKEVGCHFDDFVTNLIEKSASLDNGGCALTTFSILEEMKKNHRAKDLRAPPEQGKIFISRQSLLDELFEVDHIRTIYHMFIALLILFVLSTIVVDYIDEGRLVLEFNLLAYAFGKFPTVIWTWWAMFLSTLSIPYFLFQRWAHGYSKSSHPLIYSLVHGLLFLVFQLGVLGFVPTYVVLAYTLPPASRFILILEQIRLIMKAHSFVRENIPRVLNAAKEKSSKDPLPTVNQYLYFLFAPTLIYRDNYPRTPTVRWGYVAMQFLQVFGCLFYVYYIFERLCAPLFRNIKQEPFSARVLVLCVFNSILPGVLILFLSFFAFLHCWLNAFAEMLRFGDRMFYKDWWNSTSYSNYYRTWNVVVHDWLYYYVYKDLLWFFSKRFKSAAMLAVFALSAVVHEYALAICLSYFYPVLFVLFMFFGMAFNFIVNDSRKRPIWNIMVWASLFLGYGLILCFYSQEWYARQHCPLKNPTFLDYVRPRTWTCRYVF
Excerpt: The in vitro effects of acute phase-HDL (AP-HDL;HDL-SAA) on acyl CoA:cholesterol acyl transferase and cholesterol ester hydrolase activities and on cellular cholesterol export were studied by the inventors using purified enzymes, cell homogenates, and whole cells. […] In contrast, murine SAA1.1 and apoA-1 had no effect. […] Using macrophages preloaded with radio-labeled cholesterol and injected intravenously into either inflamed or un-inflamed mice, it was shown that the inflamed mice, which have high SAA2.1 levels, effluxed cholesterol more rapidly and to a greater extent (6-fold greater) than their un-inflamed counterparts.

[3] = biological target: T1, acyl CoA:cholesterol acyl transferase; assay: Incorporation of [14C]oleate into cholesteryl ester in cholesterol-laden macrophages (ACAT activity); assay type: cell-based, murine; details: lipoproteins or protein liposomes; tissue culture
Experimental: The incorporation of [^14C]oleate into cholesteryl ester was used as a measure of acyl CoA:cholesterol acyl transferase activity to identify compositions inhibiting the enzyme activity. The relative acyl CoA:cholesterol acyl transferase activity was determined in cholesterol-laden murine cells that had been cultured in medium in the absence of liposomes or in the presence of protein-free liposomes or liposomes containing 0.5 μM synthetic peptides corresponding to amino acids 1-20, 21-50, 51-80 and 74-103 of murine SAA2.1.
To load the cells with cholesterol, nearly confluent mono-layers were washed 3 times with phosphate buffered saline containing 2 mg/mL fatty acid-free bovine serum albumin (PBS-BSA) and incubated for 5 hours in DMEM supplemented with 5% lipoprotein-depleted serum (LPDS) (d>1.25 g/mL) and 175 μg of red blood cell membrane cholesterol. For the purpose of pool equilibration of added cholesterol, cell cultures were rinsed twice with PBS-BSA and incubated overnight in DMEM containing 5% LPDS. The relative activity of acyl CoA:cholesterol acyl transferase was determined in cholesterol-laden cells that had been cultured in medium containing no liposomes, protein-free liposomes or liposomes containing 0.5:M synthetic peptides corresponding to amino acid residues 1-20 (SEQ ID NO:1), 21-50 (SEQ ID NO:2), 51-80 (SEQ ID NO:3) or 74-103 (SEQ ID NO:4) of murine SAA2.1, respectively. Following 3 hours incubation with the above media, [^14C]-oleate was added and the cells were incubated for another 3 hour period (Mendez et al. J. Clin. Invest. 1994 94:1698-1705; Oram et al. Arterioscler. Thromb. 1991 11:403-414). Cells were chilled on ice and washed twice with PBS-BSA and twice with PBS. After addition of [^3H]-cholesteryl oleate (6000 dpm/well) as an internal standard, the lipids were extracted from the labeled cells and analyzed by thin-layer chromatography as described by Mendez et al. (J. Clin. Invest. 1994 94:1698-1705) and Oram et al. (Arterioscler. Thromb. 1991 11:403-414). The radioactivity in appropriate spots was measured to determine the incorporation of radioactivity into cholesteryl esters as a measure of acyl CoA:cholesterol acyl transferase activity.

[4] = system: cholesterol ester hydrolase; assay: Rate of hydrolysis of cholesteryl ester in cholesterol-laden J774 cells (cholesterol ester hydrolase activity); assay type: cell-based, murine; details: lipoproteins or protein liposomes; tissue culture
Experimental: Identification of the domain of SAA2.1 that is responsible for enhancing cholesterol ester hydrolase activity was performed in J774 cells preloaded with radio-labeled cholesteryl esters. These experiments were performed in the presence of Sandoz 58-035, an inhibitor of acyl CoA:cholesterol acyl transferase activity, to prevent re-esterification of liberated cholesterol and [^14C]oleate. Incubations proceeded for times ranging from 0 to 24 hours, following which the remaining quantities of [^14C]-labeled cholesteryl oleate in cells were measured to determine the rate of hydrolysis of cholesteryl ester. […] However, an equivalent amount of liposomes containing the synthetic peptide corresponding to amino acid residues 74-103 of murine SAA2.1 caused a 3-fold increase in cholesterol ester hydrolase activity in these cholesterol-laden murine cells. Newly confluent J774 cells were labeled with [^14C]-oleate during cholesterol loading with red blood cell membranes as described above. Cells were then incubated for up to 24 hours with 2 mL of DMEM containing 5% LPDS and 50 μg/mL of either native HDL, SAA-HDL, liposomes containing 2 μmoles of apoA-1, SAA1.1 or 2.1, or liposomes containing 0.5:mol synthetic peptides corresponding to amino acid residues 1-20 (SEQ ID NO:1), 21-50 (SEQ ID NO:2), 51-80 (SEQ ID NO:3) and 74-103 (SEQ ID NO:4) of murine SAA2.1. To determine the rate of cholesteryl ester hydrolysis, 2 μg/mL of the acyl CoA:cholesterol acyl transferase inhibitor Sandoz 58-035 (propanimide, 3-(decyldimethylsilyl)-N-[2-(4-methylphenyl)-1-phenylethyl]-(9Cl) was added during incubation with lipoproteins or liposomes to prevent […] and free cholesterol. To examine whether or not the rate of cholesteryl ester hydrolysis involved the lysosomal cholesteryl ester hydrolase, the cells were cultured in the presence of 50 μg/mL of either native HDL and chloroquine or SAA-HDL and chloroquine (100:M). Chloroquine is an agent that neutralizes the lysosomal proton gradient. At various time points, cellular lipids were extracted and analyzed for cholesteryl ester radioactivity as described above.

J774 macrophages [5] = assay: Cholesterol efflux from cholesterol-laden J774 macrophages to apolipoprotein liposomes with 8-bromo-cAMP or methyl-β-cyclodextrin; assay type: cell-based, mouse
Excerpt: The export process of cholesterol is coupled to the ATP binding cassette transporter (ABCA1) pathway. Lipid efflux to apolipoproteins has been shown previously to be stimulated by treatment of murine macrophages with cAMP analogues (Lin et al. 2002 Biochem Biophys Res. Commun. 290:663-669; Oram et al. 2000 J. Biol. Chem. 275:34508-34511). Also, the expression of ABCA1 is induced by cAMP treatment (Lin et al. 2002 Biochem Biophys Res. Commun. 290:663-669; Oram et al. 2000 J. Biol. Chem. 275:34508-34511). The inventors herein examined the effect of 8-bromo-cAMP (0.3 mM) on cholesterol efflux by liposomes containing various apolipoproteins when incubated with cholesterol-laden J774 macrophages. Such cells were pre-labeled with [^3H]-cholesterol in the presence of Sandoz 58-035, an ACAT inhibitor, to ensure that all of the radiolabeled cholesterol released from the cells was derived from the un-esterified cholesterol pool, and the cells were treated for 12 hours with 8-bromo-cAMP. This was followed by incubation with various acceptors. The fractional release of cellular labeled cholesterol was determined as a function of time.
To investigate whether an apolipoprotein free cholesterol acceptor such as cyclodextrin has the ability to catalyze the removal of cholesterol from macrophages, cholesterol-loaded and labeled J774 cells were incubated with liposomes and methyl-β-cyclodextrin (0.1 mM) (CD).
To examine whether cholesterol export from J774 cells to medium containing liposomes containing 2 μM murine apoA-1, SAA1.1 or SAA2.1 is a cAMP-dependent process, the radio-labeled cholesterol-laden cells were incubated overnight with 8-Br-cAMP (0.3 mM), prior to the addition of liposomes containing 2 μM murine apoA-1, SAA1.1 or SAA2.1 to the culture medium. Cholesterol efflux to the medium was then determined at the indicated time points as described above. Efflux of radioactive label to the medium was calculated as a percentage of total counts in each well.

B1: GFFSFIGEAFQGAGDMWRAYTDMKEAGWKDGDKYFHARGNYDAAQRGPGGVWAAEKISD ARESFQEFFGRGHEDTMADQEANRHGRSGKDPNYYRPPGLPAKY (protein, listed as Mus musculis)
chain: GFFSFIGEAFQGAGDMWRAYTDMKEAGWKDGDKYFHARGNYDAAQRGPGGVWAAEKISDARESFQEFFGRGHEDTMADQEANRHGRSGKDPNYYRPPGLPAKY
notes: full length murine serum amyloid A isoform 1.1
promotion of cholesterol efflux from cholesterol-laden macrophages compared to protein-free liposomes (J774 macrophages [1]): not any more effective than protein-free liposomes
acyl CoA:cholesterol acyl transferase activity [2]: had no effect
acyl CoA:cholesterol acyl transferase activity in intact cholesterol-laden macrophages [3]: no effect on enzyme activities
cholesterol ester hydrolase activity in intact cholesterol-laden macrophages [4]: no effect on enzyme activities
stimulation of cholesterol efflux to liposomes with or without cAMP pre-treatment (J774 macrophages [5]; 8-bromo-cAMP 0.3 mM): No stimulation of efflux
increase in the initial rate of cholesterol efflux with CD treatment (J774 macrophages [5]; methyl-β-cyclodextrin 0.1 mM plus liposomes): not
